This passage reports Kd results from paper PMC4528141, “Generating a Metal-responsive Transcriptional Regulator to Test What Confers Metal Sensing in Cells*”.

For the data set, the target named is T1, FrmR (Salmonella enterica serovar Typhimurium …, UniProt A0A719I766 1-91).
T1 sequence: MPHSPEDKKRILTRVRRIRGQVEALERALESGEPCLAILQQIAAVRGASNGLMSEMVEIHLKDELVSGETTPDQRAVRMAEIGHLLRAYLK
The experiment in a line: fluorescence anisotropy; apo, 5 mM EDTA; 10 nM DNA; 2 tetramers:DNA, equal affinity; 10 mM HEPES pH 7.0, 60 mM NaCl, 240 mM KCl, 25 C, anaerobic; 5 mM EDTA (apo) or ZnCl2 (5 uM in text, 20 uM in Table 2). Particulars: protein: recombinant; tags: none stated (pET29a NdeI; reverse primer carries native stop); chain copies: 8; label: 5' HEX on strand 1; blunt. For orientation: Polarisation of emitted light reports the rotation of a fluorescent probe.

B1: frmRAPro (dsDNA)
DNA 1: TTCTGATAGTATACCCCCCTATAGTATATGGAG
DNA 2: CTCCATATACTATAGGGGGGTATACTATCAGAA
As usually defined, the Kd is the concentration at which binding is half-saturated. On to B1, for which the dissociation constant (Kd) came to 0.0994 µM.
